From article PMC6987225

Molecular target: T1, EngHD (Engrailed homeodomain, DNA-binding domain) (Drosophila melanogaster) (UniProt P02836)
T1 sequence: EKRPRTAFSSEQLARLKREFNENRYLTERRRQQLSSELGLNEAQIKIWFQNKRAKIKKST
Assay: FCS
Details: ~1 nM Alexa 488-EngHD with unlabeled dsDNA titrated, ionic strength 50 mM (NaCl) unless stated, buffer, pH and temperature not in the material

| Substance | Kd [nM] | Kd (upper estimate, text: sub-nM) [nM] |
| --- | --- | --- |
| CCATGGTTCTTAACCAAATTGAATTCTCGCCACCGATCGTGTTCGCCCGAAATAAATCTGGCCGAAAAGCCATCAATCTACAATCTAACTGTGCCTCGGTTTATACCTCCAACTGCCGTTCACCGAAAAGGCCGACAGTTTTCCGACAAAGACAAATTCTTAACCAAATTGAATTCTCGCCACCGATCGTGTTCGCCCGAAATAAATCTGGCCGAAAAGCCATCAATCTACAATCTAACTGTGCCTCGGTTTATACCTCCAACTGCCGTTCACCGAAAAGGCCGACAGTTTTCCGACTAATTGTTCTTAACCAAATTGAATTCTCGCCACCGATCGTGTTCGCCCGAAATAAATCTGGCCGAAAAGCCATCAATCTACAATCTAACTGTGCCTCGGTTTATACCTCCAACTGCCGTTCACCGAAAAGGCCGACAGTTTTCCGACTTCTTAACCAAATTGAATTCTCGCCACCGATCGTGTTCGCCCGAAATAAATCTGGCCGAAAAGCCATCAATCTACAATCTAACTGTGCCTCGGTTTATACCTCCAACTGCCGTTCACCGAAAAGGCCGACAGTTTTCCGACAAAGACAAAAAGCTT (double strand) [600 bp TAATTG] | 2.2 | – |
| full beta3-tubulin gene 7219 bp | – | < 0.7 |
